Measured values taken from patent US20240360194A1, “New Peptides as Potent and Selective GIP Receptor Agonists” (Sanofi, priority 2021, published 2024).
Numbered stars: 1 amine (or outer) side, 2 acyl side, 3 side chain; on linkers, the order of the positions; unused ones are H or OH. Square brackets hold non-standard residues; d marks the D form. Side chains are listed from the residue outwards. Ends that are not written are not given here. * marks the point of attachment. C18 diacid = O=C(O)CCCCCCCCCCCCCCCCC(=O)*; γGlu = O=C(O)[C@H](CCC(=O)[*:2])N[*:1]; αMeF = C[C@](N)(Cc1ccccc1)C(=O)O; hLeu = CC(C)CC[C@H](N)C(=O)O; Iva = CC[C@](C)(N)C(=O)O; Abu = CC[C@H](N)C(=O)O; AEEA = NCCOCCOCC(=O)O; Aib = CC(C)(N)C(=O)O

B1: SEQ ID NO: 34 (peptide)
peptide: H-Y[Aib]EGTFISD[hLeu]SI[Aib]K([AEEA-AEEA-γGlu-C18 diacid])DRIHQEEFIEWLLAQGPSSGAPPPS-NH2
SMILES: CC[C@H](C)[C@H](NC(=O)[C@H](Cc1ccccc1)NC(=O)[C@H](CCC(=O)O)NC(=O)[C@H](CCC(=O)O)NC(=O)[C@H](CCC(N)=O)NC(=O)[C@H](Cc1c[nH]cn1)NC(=O)[C@@H](NC(=O)[C@H](CCCNC(=N)N)NC(=O)[C@H](CC(=O)O)NC(=O)[C@H](CCCCNC(=O)COCCOCCNC(=O)COCCOCCNC(=O)CC[C@H](NC(=O)CCCCCCCCCCCCCCCCC(=O)O)C(=O)O)NC(=O)C(C)(C)NC(=O)[C@@H](NC(=O)[C@H](CO)NC(=O)[C@H](CCC(C)C)NC(=O)[C@H](CC(=O)O)NC(=O)[C@H](CO)NC(=O)[C@@H](NC(=O)[C@H](Cc1ccccc1)NC(=O)[C@@H](NC(=O)CNC(=O)[C@H](CCC(=O)O)NC(=O)C(C)(C)NC(=O)[C@@H](N)Cc1ccc(O)cc1)[C@@H](C)O)[C@@H](C)CC)[C@@H](C)CC)[C@@H](C)CC)C(=O)N[C@@H](CCC(=O)O)C(=O)N[C@@H](Cc1c[nH]c2ccccc12)C(=O)N[C@@H](CC(C)C)C(=O)N[C@@H](CC(C)C)C(=O)N[C@@H](C)C(=O)N[C@@H](CCC(N)=O)C(=O)NCC(=O)N1CCC[C@H]1C(=O)N[C@@H](CO)C(=O)N[C@@H](CO)C(=O)NCC(=O)N[C@@H](C)C(=O)N1CCC[C@H]1C(=O)N1CCC[C@H]1C(=O)N1CCC[C@H]1C(=O)N[C@@H](CO)C(N)=O
notes: Synthetic peptide, 39 residues
B2: SEQ ID NO: 32 (peptide)
peptide: H-Y[Aib]EGTFISDLSI[Aib]K([AEEA-AEEA-γGlu-C18 diacid])DRIHQEE[αMeF]IEWLLAQGPSSGAPPPS-NH2
SMILES: CC[C@H](C)[C@H](NC(=O)[C@H](CCCNC(=N)N)NC(=O)[C@H](CC(=O)O)NC(=O)[C@H](CCCCNC(=O)COCCOCCNC(=O)COCCOCCNC(=O)CC[C@H](NC(=O)CCCCCCCCCCCCCCCCC(=O)O)C(=O)O)NC(=O)C(C)(C)NC(=O)[C@@H](NC(=O)[C@H](CO)NC(=O)[C@H](CC(C)C)NC(=O)[C@H](CC(=O)O)NC(=O)[C@H](CO)NC(=O)[C@@H](NC(=O)[C@H](Cc1ccccc1)NC(=O)[C@@H](NC(=O)CNC(=O)[C@H](CCC(=O)O)NC(=O)C(C)(C)NC(=O)[C@@H](N)Cc1ccc(O)cc1)[C@@H](C)O)[C@@H](C)CC)[C@@H](C)CC)C(=O)N[C@@H](Cc1c[nH]cn1)C(=O)N[C@@H](CCC(N)=O)C(=O)N[C@@H](CCC(=O)O)C(=O)N[C@@H](CCC(=O)O)C(=O)N[C@@](C)(Cc1ccccc1)C(=O)N[C@H](C(=O)N[C@@H](CCC(=O)O)C(=O)N[C@@H](Cc1c[nH]c2ccccc12)C(=O)N[C@@H](CC(C)C)C(=O)N[C@@H](CC(C)C)C(=O)N[C@@H](C)C(=O)N[C@@H](CCC(N)=O)C(=O)NCC(=O)N1CCC[C@H]1C(=O)N[C@@H](CO)C(=O)N[C@@H](CO)C(=O)NCC(=O)N[C@@H](C)C(=O)N1CCC[C@H]1C(=O)N1CCC[C@H]1C(=O)N1CCC[C@H]1C(=O)N[C@@H](CO)C(N)=O)[C@@H](C)CC
notes: as for B1
B3: SEQ ID NO: 31 (peptide)
peptide: H-Y[Aib]EGTFISDLSI[Aib]K([AEEA-AEEA-γGlu-C18 diacid])DRIHQ[Aib]EFIEW[Iva]LAQGPSSGAPPPS-NH2
notes: as for B1
B4: SEQ ID NO: 25 (peptide)
peptide: H-Y[Aib]EGT[Abu]ISDLSI[Aib]K([AEEA-AEEA-γGlu-C18 diacid])DRIHQEEFIEWLLAQGPSSGAPPPS-NH2
SMILES: CC[C@H](NC(=O)[C@@H](NC(=O)CNC(=O)[C@H](CCC(=O)O)NC(=O)C(C)(C)NC(=O)[C@@H](N)Cc1ccc(O)cc1)[C@@H](C)O)C(=O)N[C@H](C(=O)N[C@@H](CO)C(=O)N[C@@H](CC(=O)O)C(=O)N[C@@H](CC(C)C)C(=O)N[C@@H](CO)C(=O)N[C@H](C(=O)NC(C)(C)C(=O)N[C@@H](CCCCNC(=O)COCCOCCNC(=O)COCCOCCNC(=O)CC[C@H](NC(=O)CCCCCCCCCCCCCCCCC(=O)O)C(=O)O)C(=O)N[C@@H](CC(=O)O)C(=O)N[C@@H](CCCNC(=N)N)C(=O)N[C@H](C(=O)N[C@@H](Cc1c[nH]cn1)C(=O)N[C@@H](CCC(N)=O)C(=O)N[C@@H](CCC(=O)O)C(=O)N[C@@H](CCC(=O)O)C(=O)N[C@@H](Cc1ccccc1)C(=O)N[C@H](C(=O)N[C@@H](CCC(=O)O)C(=O)N[C@@H](Cc1c[nH]c2ccccc12)C(=O)N[C@@H](CC(C)C)C(=O)N[C@@H](CC(C)C)C(=O)N[C@@H](C)C(=O)N[C@@H](CCC(N)=O)C(=O)NCC(=O)N1CCC[C@H]1C(=O)N[C@@H](CO)C(=O)N[C@@H](CO)C(=O)NCC(=O)N[C@@H](C)C(=O)N1CCC[C@H]1C(=O)N1CCC[C@H]1C(=O)N1CCC[C@H]1C(=O)N[C@@H](CO)C(N)=O)[C@@H](C)CC)[C@@H](C)CC)[C@@H](C)CC)[C@@H](C)CC
notes: as for B1
B5: SEQ ID NO: 28 (peptide)
peptide: Y[Aib]EGTFISDLSI[Aib]K([AEEA-AEEA-γGlu-C18 diacid])DRIHQEEFIEWLLAQEPSSGAPPPS-OH
modifications: N-terminus assumed
SMILES: CC[C@H](C)[C@H](NC(=O)[C@H](Cc1ccccc1)NC(=O)[C@H](CCC(=O)O)NC(=O)[C@H](CCC(=O)O)NC(=O)[C@H](CCC(N)=O)NC(=O)[C@H](Cc1c[nH]cn1)NC(=O)[C@@H](NC(=O)[C@H](CCCNC(=N)N)NC(=O)[C@H](CC(=O)O)NC(=O)[C@H](CCCCNC(=O)COCCOCCNC(=O)COCCOCCNC(=O)CC[C@H](NC(=O)CCCCCCCCCCCCCCCCC(=O)O)C(=O)O)NC(=O)C(C)(C)NC(=O)[C@@H](NC(=O)[C@H](CO)NC(=O)[C@H](CC(C)C)NC(=O)[C@H](CC(=O)O)NC(=O)[C@H](CO)NC(=O)[C@@H](NC(=O)[C@H](Cc1ccccc1)NC(=O)[C@@H](NC(=O)CNC(=O)[C@H](CCC(=O)O)NC(=O)C(C)(C)NC(=O)[C@@H](N)Cc1ccc(O)cc1)[C@@H](C)O)[C@@H](C)CC)[C@@H](C)CC)[C@@H](C)CC)C(=O)N[C@@H](CCC(=O)O)C(=O)N[C@@H](Cc1c[nH]c2ccccc12)C(=O)N[C@@H](CC(C)C)C(=O)N[C@@H](CC(C)C)C(=O)N[C@@H](C)C(=O)N[C@@H](CCC(N)=O)C(=O)N[C@@H](CCC(=O)O)C(=O)N1CCC[C@H]1C(=O)N[C@@H](CO)C(=O)N[C@@H](CO)C(=O)NCC(=O)N[C@@H](C)C(=O)N1CCC[C@H]1C(=O)N1CCC[C@H]1C(=O)N1CCC[C@H]1C(=O)N[C@@H](CO)C(=O)O
notes: Synthetic peptide, 39 residues (Glu at 30)

Target: T1, human GIP receptor (human, UniProt P48546 22-466)
T1 sequence (looked up): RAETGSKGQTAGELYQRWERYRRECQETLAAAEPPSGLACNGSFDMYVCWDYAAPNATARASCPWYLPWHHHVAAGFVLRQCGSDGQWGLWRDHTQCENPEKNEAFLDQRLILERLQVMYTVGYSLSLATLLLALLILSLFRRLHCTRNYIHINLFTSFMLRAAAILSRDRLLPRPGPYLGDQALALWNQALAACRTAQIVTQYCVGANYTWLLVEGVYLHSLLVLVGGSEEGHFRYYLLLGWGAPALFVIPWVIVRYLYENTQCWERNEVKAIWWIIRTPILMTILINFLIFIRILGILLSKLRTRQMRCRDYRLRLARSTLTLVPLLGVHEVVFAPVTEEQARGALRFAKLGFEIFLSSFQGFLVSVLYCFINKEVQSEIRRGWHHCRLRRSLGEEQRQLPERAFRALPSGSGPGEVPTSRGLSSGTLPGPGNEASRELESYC
Test: cell-based or functional assay

Point of comparison: B5, “hGIPR EC50 (cAMP, human adipocytes)” value 500 pM. Against it:
- B1 — the same, 500 pM
- B2 — within 1.5-fold, 600 pM
- B3 — within 1.5-fold, 700 pM
- B4 — 2.5-fold lower, 200 pM

Point of comparison: B2, “hGIPR Emax (cAMP, human adipocytes)” value 109%. Against it:
- B1 — higher, 112%
- B3 — higher, 121%
- B4 — higher, 112%
- B5 — lower, 103%

Target: T2, human GLP-1 receptor (human, UniProt P43220 24-463)
T2 construct: whole, on cells; also called hGLP-1R; hGLP-1 R
Test: displacement of [125I]GLP-1 from HEK-293 membranes expressing hGLP-1R (SPA beads)

Point of comparison: B1, IC50 195000 pM. Against it:
- B2 — 3.3-fold higher, 650000 pM
- B3 — within 1.5-fold, 292000 pM
- B4 — 2.1-fold higher, 417000 pM
- B5 — 2.2-fold higher, 426000 pM

Target: T1, human GIP receptor
Test: cell-based or functional assay
Remark: another data set of the same source

Point of comparison: B5, “EC50 hGIPR 0% HSA (cAMP, HEK-293)” value 0.73 pM. Against it:
- B1 — 3.3-fold lower, 0.22 pM
- B2 — within 1.5-fold, 0.96 pM
- B3 — 4.9-fold lower, 0.15 pM
- B4 — 2.6-fold lower, 0.28 pM

Point of comparison: B5, “EC50 hGIPR 0.1% BSA (cAMP, HEK-293)” value 64.7 pM. Against it:
- B1 — 1.9-fold lower, 33.5 pM
- B2 — 1.8-fold higher, 119 pM
- B3 — 9.3-fold lower, 6.96 pM
- B4 — 4.5-fold lower, 14.4 pM

Target: T2, human GLP-1 receptor
Test: cell-based or functional assay

B1 and B2 cannot be ordered by “EC50 hGLP-1R 0.1% BSA (cAMP, HEK-293)” value: greater than 10000 pM for the first, greater than 10000 pM for the second.

B3 and B4 cannot be ordered by “EC50 hGLP-1R 0.1% BSA (cAMP, HEK-293)” value: greater than 10000 pM for the first, greater than 10000 pM for the second.

For B5, the “EC50 hGLP-1R 0.1% BSA (cAMP, HEK-293)” value was greater than 10000 pM.
